Assay results published in patent US20240294623A1.

Biological target: antigen of FIG. 44 (not named)
Experiment: SPR (Biacore), Fab, FIG. 44

B1: Ab46 Fab (Fab, V domains shown)
VH: EVQLLESGGGLVQPGGSLRLSCAASGFTFADYAMTWVRQAPGKGLEWVSAISGSGAATYFADSVKGRFTISRDNSKNTLYLQMNSLRAEDTAVYYCARVSSGHWDYDYWGQGTLVTVSS
VL: DIQLTQSPSSLSASVGDRVTITCRASQSISSYLNWYQQKPGKAPKLLIYAASGLESGVPSRFSGSGSGTDFTLTISSLQPEDFATYYCQQTYGVPLTFGGGTKVEIK
B1 showed a fold longer bound than the reference antibody of over 50 fold and a t1/2 of over 130 min.
